To fix the notation:
B1: Actin nucleation-promoting factor WAS (Homo sapiens), P42768 (parent)
chain: MSGGPMGGRPGGRGAPAVQQNIPSTLLQDHENQRLFEMLGRKCLTLATAVVQLYLALPPGAEHWTKEHCGAVCFVKDNPQKSYFIRLYGLQAGRLLWEQELYSQLVYSTPTPFFHTFAGDDCQAGLNFADEDEAQAFRALVQEKIQKRNQRQSGDRRQLPPPPTPANEERRGGLPPLPLHPGGDQGGPPVGPLSLGLATVDIQNPDITSSRYRGLPAPGPSPADKKRSGKKKISKADIGAPSGFKHVSHVGWDPQNGFDVNNLDPDLRSLFSRAGISEAQLTDAETSKLIYDFIEDQGGLEAVRQEMRRQEPLPPPPPPSRGGNQLPRPPIVGGNKGRSGPLPPVPLGIAPPPPTPRGPPPPGRGGPPPPPPPATGRSGPLPPPPPGAGGPPMPPPPPPPPPPPSSGNGPAPPPLPPALVPAGGLAPGGGRGALLDQIRQGIQLNKTPGAPESSALQPPPQSSEGLVGALMHVMQKRSRAIHSSDEGEDQAGDEDEDDEWDD

The assay covers variants of B1. To be noted: with wipf1_human WIPF1, O43516.
Chain of wipf1_human WIPF1, O43516 (O43516 whole entry): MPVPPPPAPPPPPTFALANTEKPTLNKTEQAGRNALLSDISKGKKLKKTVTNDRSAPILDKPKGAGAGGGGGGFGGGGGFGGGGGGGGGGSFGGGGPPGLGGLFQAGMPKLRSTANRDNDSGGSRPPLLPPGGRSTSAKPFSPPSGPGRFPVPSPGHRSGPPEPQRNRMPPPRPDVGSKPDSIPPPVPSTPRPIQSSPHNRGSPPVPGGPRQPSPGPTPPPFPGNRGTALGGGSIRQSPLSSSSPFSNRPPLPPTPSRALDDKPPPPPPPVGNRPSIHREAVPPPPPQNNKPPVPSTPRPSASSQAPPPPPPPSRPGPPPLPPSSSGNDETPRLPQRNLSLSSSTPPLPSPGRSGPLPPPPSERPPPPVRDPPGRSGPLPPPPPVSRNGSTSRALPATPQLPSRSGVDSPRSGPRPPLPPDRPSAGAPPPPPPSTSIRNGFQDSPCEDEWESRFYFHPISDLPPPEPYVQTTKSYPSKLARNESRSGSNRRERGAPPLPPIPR
In the case of MSGGPMGGRPGGRGAPAVQQNIPSTLLQDHENQRLFEMLGRKCLTLATAVVQLYLALPPGAEHWTKEHCGAVCFVKDNPQKSYFIRLYGLQAGRLLWEQELYSQLVYSTPTPFFHTFAGDDCQAGLNFADEDETQAFRALVQEKIQKRNQRQSGDRRQLPPPPTPANEERRGGLPPLPLHPGGDQGGPPVGPLSLGLATVDIQNPDITSSRYRGLPAPGPSPADKKRSGKKKISKADIGAPSGFKHVSHVGWDPQNGFDVNNLDPDLRSLFSRAGISEAQLTDAETSKLIYDFIEDQGGLEAVRQEMRRQEPLPPPPPPSRGGNQLPRPPIVGGNKGRSGPLPPVPLGIAPPPPTPRGPPPPGRGGPPPPPPPATGRSGPLPPPPPGAGGPPMPPPPPPPPPPPSSGNGPAPPPLPPALVPAGGLAPGGGRGALLDQIRQGIQLNKTPGAPESSALQPPPQSSEGLVGALMHVMQKRSRAIHSSDEGEDQAGDEDEDDEWDD [A134T], the “effect of a mutation on the interaction” value was “decreasing interaction”.

For the origin of these results see IntAct's records for PubMed 16488394.
